Measured values: PMC5441561 (Science (New York, N.Y.), 2017)
Read-outs that look alike come from different tables or passages of the source.

What was measured:
crystal structure [1] = target: the molecule itself; assay: crystal structure
crystal structure [2] = target: the molecule itself; assay: crystal structure; remark: listed apart in the source

Protein	stoichiometry N (crystal structure [1])	stoichiometry N (crystal structure [2])
KaiA_(cryst) (domain or fragment, Thermosynechococcus elongatus) SNVDPQHRLSQKLKERLGYLGVYYKRDTAFFFRRMSPADKRKLLDELRSIYRTIVLEYFNTDAKVNERIDEFVSKAFFADISVSQVLEIHVELMDTFSKQLKLEGRSEDILLDYRLTLIDVIAHLSEMYRRSIPREV	2	
KaiC_(S431E) (enzyme, Thermosynechococcus elongatus, UniProt Q79V60 1-518, looked up) MTNLPEHQSSPTEQSSAEVKKIPTMIEGFDDISHGGLPQGRTTLVSGTSGTGKTLFAVQFLYNGITIFNEPGIFVTFEESPQDIIKNALSFGWNLQSLIDQGKLFILDASPDPDGQEVAGDFDLSALIERIQYAIRKYKATRVSIDSVTAVFQQYDAASVVRREIFRLAFRLKQLGVTTIMTTERVDEYGPVARFGVEEFVSDNVVILRNVLEGERRRRTVEILKLRGTTHMKGEYPFTINNGINIFPLGAMRLTQRSSNVRVSSGVKTLDEMCGGGFFKDSIILATGATGTGKTLLVSKFLETGCQQGERALLFAYEESRAQLSRNASSWGIDFEELERRGLLRIICAYPESAGLEDHLQIIKSEIADFKPSRVAIDSLSALARGVSNNAFRQFVIGVTGFAKQEEITGFFTNTTDQFMGSNSITESHIETITDTILLLQYVEIRGEMSRAINVFKMRGSWHDKGIREYVITEKGAEIRDSFRNFEGIISGTPTRISVDEKTELARIAKGMQDLESE		6
